The target of this assay is Trx-N variant protein (homo sapiens and HIV hybrid). The assay is described as follows: immunoassay on plate-adsorbed Trx-N, detection with anti-GST antibody.

B1: glutathione S-transferase (GST), unmodified (other)
chain: MACGHVKLIYFNGRGRAEPIRMILVAAGVEFEDERIEFQDWPKIKPTIPGGRLPIVKITDKRGDVKTMSESLAIARFIARKHNMMGDTDDEYYIIEKMIGQVEDVESEYHKTLMKPPEEKEKISKEILNGKVPILLQAICETLKESTGNLTVGDKVTLADVVLIASIDHITDLDKEFLTGKYPEIHKHRKHLLATSPKLAKYLSERHATAFLVPRGSPGIHRD
As for B1, the binding result is reported as “no binding”.

Values taken from US6294341, “Method for detecting a substance having an activity to inhibit HIV infection using immunoassay and variant protein used for said method” (Korea Institute of Science and Technology, dated 2001).
